# What was measured:
# [1] = target: T1, human Integrin Associated Protein (IAP) expressed on mouse leukemia cell line L1210 (human, UniProt Q08722 19-323); experiment: flow cytometry, COS7 supernatant on L1210 cells expressing human IAP, anti-FLAG detection
# T1 construct: whole, on cells; also called human IAP; hIAP/L1210
# Experimental: Flow cytometry was performed using the culture supernatants of COS7 cells prepared in Example 6.3 (1) to measure the binding of the MABL2-scFVs and sc(Fv)₂ to human Integrin Associated Protein (IAP) antigen. The culture supernatants to be tested or a culture supernatant of COS7 cells as a control was added to 2×10⁵ cells of the mouse leukemia cell line L1210 expressing human IAP. After incubating on ice and washing, 10 μg/mL of the mouse anti-FLAG antibody (SIGMA) was added and then the cells were incubated and washed. Then, the FITC labeled anti-mouse IgG antibody (BECTON DICKINSON) was added thereto and the cells were incubated and washed again. The fluorescence intensity was measured using the FACScan apparatus (BECTON DICKINSON).
# [2] = target: T1, human Integrin Associated Protein (IAP) …; experiment: flow cytometry, COS7 supernatant on L1210 cells expressing human IAP
# Experimental: Flow cytometry was performed using the aforementioned culture supernatant of COS7 cells to measure binding to the antigen. The culture supernatant of the COS7 cells expressing the chimera MABL-1 antibody or the COS7 cells expressing the chimera MABL-2 antibody, or human IgG antibody (SIGMA) as a control was added to 4×10⁵ cells of mouse leukemia cell line L1210 expressing human IAP and incubated on ice. After washing, the FITC-labeled anti-human IgG antibody (Cappel) was added thereto. After incubating and washing, the fluorescence intensity thereof was measured using the FACScan apparatus (BECTON DICKINSON).
# [3] = target: secretion-type human IAP antigen (human, UniProt Q08722 19-142, limits assumed); experiment: competitive ELISA on captured secretion-type human IAP; competitor biotinized MABL-2 antibody
# Sequence of secretion-type human IAP antigen (Q08722 other isoform, or with tags, fused parts or gaps limits assumed): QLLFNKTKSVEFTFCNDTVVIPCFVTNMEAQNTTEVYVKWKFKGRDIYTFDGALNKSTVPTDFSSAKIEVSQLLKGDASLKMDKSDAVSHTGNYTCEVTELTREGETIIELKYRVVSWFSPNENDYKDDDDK
# Experimental: The binding activity of the reconstructed single-chain Fv of antibody MABL-2 was measured based on the inhibiting activity against the binding of mouse monoclonal antibodies to the antigen.
# The anti-FLAG antibody adjusted to 1 μg/ml was added to each well on 96-well plate and incubated at 37° C. for 2 hours. After washing, blocking was performed with 1% BSA-PBS. After incubating and washing at a room temperature, the culture supernatant of COS7 cells into which the secretion-type human IAP antigen gene (SEQ ID No. 26) had been introduced was diluted with PBS into twofold volume and added to each well. After incubating and washing at a room temperature, a mixture of 50 μl of the biotinized MABL-2 antibody adjusted to 100 ng/ml and 50 μl of sequentially diluted supernatant of the COS7 cells expressing the reconstructed single-chain Fv of antibody MABL-2 were added into each well. After incubating and washing at a room temperature, the alkaline phosphatase-conjugated streptoavidin (Zymed) was added into each well. After incubating and washing at a room temperature, the substrate solution (SIGMA) was added and absorbance of the reaction mixture in each well was measured at 405 nm.
# T1 sequence (Q08722 19-323): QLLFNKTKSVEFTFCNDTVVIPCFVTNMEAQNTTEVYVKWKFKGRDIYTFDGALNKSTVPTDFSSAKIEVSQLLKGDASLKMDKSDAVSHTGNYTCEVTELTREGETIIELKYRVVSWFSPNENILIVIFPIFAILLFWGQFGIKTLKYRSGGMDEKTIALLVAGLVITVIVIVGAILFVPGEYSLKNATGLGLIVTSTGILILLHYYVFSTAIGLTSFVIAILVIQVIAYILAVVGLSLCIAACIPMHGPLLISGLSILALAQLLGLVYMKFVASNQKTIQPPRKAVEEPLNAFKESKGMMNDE
binding result [1],binding result [2],binding result [3],Binder
binds,–,–,"MABL2-scFv <LH-0> (scFv, [L chain V]-[H chain V] without a linker, with a leader at the 5' end and FLAG at the C-terminus; COS7 culture supernatant; also called CF2LH-0/pCOS1) scFv: DVVMTQSPLSLPVSLGDQASISCRSSQSLVHSNGKTYLHWYLQKPGQSPKLLIYKVSNRFSGVPDRFSGSGSVTDFTLMISRVEAEDLGVYFCSQSTHVPYTFGGGTKLEIKQVQLQQSGPELVKPGASVKMSCKASGYTFANHVIHWVKQKPGQGLEWIGYIYPYNDGTKYNEKFKDKATLTSDKSSTTAYMDLSSLASEDSAVYYCARGGYYTYDDWGQGTTLTVSSDYKDDDDK"
binds,–,–,"antibody MABL-2 sc(Fv)2, reconstructed polypeptide comprising two H chain V regions and two L chain V regions (other, Single chain VH-VL-VH-VL from plasmid pCHOM2(Fv)2, with a C-terminal FLAG; Eluted at the position of the monomer in gel filtration) QVQLQQSGPELVKPGASVKMSCKASGYTFANHVIHWVKQKPGQGLEWIGYIYPYNDGTKYNEKFKDKATLTSDKSSTTAYMDLSSLASEDSAVYYCARGGYYTYDDWGQGTTLTVSSGGGGSGGGGSGGGGSDVVMTQSPLSLPVSLGDQASISCRSSQSLVHSNGKTYLHWYLQKPGQSPKLLIYKVSNRFSGVPDRFSGSGSVTDFTLMISRVEAEDLGVYFCSQSTHVPYTFGGGTKLEIKGGGGSGGGGSGGGGSVDSQVQLQQSGPELVKPGASVKMSCKASGYTFANHVIHWVKQKPGQGLEWIGYIYPYNDGTKYNEKFKDKATLTSDKSSTTAYMDLSSLASEDSAVYYCARGGYYTYDDWGQGTTLTVSSGGGGSGGGGSGGGGSDVVMTQSPLSLPVSLGDQASISCRSSQSLVHSNGKTYLHWYLQKPGQSPKLLIYKVSNRFSGVPDRFSGSGSVTDFTLMISRVEAEDLGVYFCSQSTHVPYTFGGGTKLEIKDYKDDDDK"
–,binds,–,"chimera MABL-1 antibody (antibody, V domains shown, Mouse MABL-1 V regions cloned into HEF-kappa and HEF-gamma expression vectors carrying human C regions (WO92/19759); Tested as COS7 culture supernatant) VH: QVQLQQSGPDLVKPGASVKMSCKASGYTFVNHVMHWVKQKPGQGLEWIGYIYPYNDGTKYNEKFKGKATLTSEKSSSAAYMELSSLASEDSAVYYCARGGYYSYDDWGQGTTLTVSS VL: DVVMTQTPLSLPVSLGDQASISCRSSQSLLHSKGNTYLQWYLQKPGQSPKLLIYKVSNRFSGVPDRFSGSGSGTDFTLKISRVEAEDLGVYFCSQSTHVPYTSGGGTKLEIK"
–,binds,–,"chimera MABL-2 antibody (antibody, V domains shown, Mouse MABL-2 V regions cloned into HEF-kappa and HEF-gamma expression vectors carrying human C regions (WO92/19759); Tested as COS7 culture supernatant) VH: QVQLQQSGPELVKPGASVKMSCKASGYTFANHVIHWVKQKPGQGLEWIGYIYPYNDGTKYNEKFKDKATLTSDKSSTTAYMDLSSLASEDSAVYYCARGGYYTYDDWGQGTTLTVSS VL: DVVMTQSPLSLPVSLGDQASISCRSSQSLVHSNGKTYLHWYLQKPGQSPKLLIYKVSNRFSGVPDRFSGSGSVTDFTLMISRVEAEDLGVYFCSQSTHVPYTFGGGTKLEIK"
binds,–,–,"MABL2-scFv <HL-0> (scFv, [H chain V]-[L chain V] without a linker, with a leader at the 5' end and FLAG at the C-terminus; COS7 culture supernatant; also called CF2HL-0/pCOS1) scFv: QVQLQQSGPELVKPGASVKMSCKASGYTFANHVIHWVKQKPGQGLEWIGYIYPYNDGTKYNEKFKDKATLTSDKSSTTAYMDLSSLASEDSAVYYCARGGYYTYDDWGQGTTLTVSSDVVMTQSPLSLPVSLGDQASISCRSSQSLVHSNGKTYLHWYLQKPGQSPKLLIYKVSNRFSGVPDRFSGSGSVTDFTLMISRVEAEDLGVYFCSQSTHVPYTFGGGTKLEIKDYKDDDDK"
binds,–,binds,"reconstructed single-chain Fv of antibody MABL-2 (MABL2-scFv), from pCHOM2-transfected COS7 cells (scFv, Tested as COS7 culture supernatant; also called MABL2-scFv/COS7) scFv: QVQLQQSGPELVKPGASVKMSCKASGYTFANHVIHWVKQKPGQGLEWIGYIYPYNDGTKYNEKFKDKATLTSDKSSTTAYMDLSSLASEDSAVYYCARGGYYTYDDWGQGTTLTVSSGGGGSGGGGSGGGGSDVVMTQSPLSLPVSLGDQASISCRSSQSLVHSNGKTYLHWYLQKPGQSPKLLIYKVSNRFSGVPDRFSGSGSVTDFTLMISRVEAEDLGVYFCSQSTHVPYTFGGGTKLEIKDYKDDDDK"

# Source: patent US20040073013A1 (Chugai, published 2004)
